Molecular target: T1, CRB1-FLAG p.G1103R (human, UniProt P82279 26-1406, p.G1103R)
T1 construct: Crumbs homolog 1, canonical form, human, cDNA NM_202153 as printed, with a patient missense mutation in the last laminin G domain; Made by site-directed mutagenesis of m1; also called CRB1 p.G1103R; CRB1-FLAG MT; source: HEK293T, transfected, in lysate; not shown: Strep-Strep-FLAG, N-terminal, kept
T1 sequence (looked up): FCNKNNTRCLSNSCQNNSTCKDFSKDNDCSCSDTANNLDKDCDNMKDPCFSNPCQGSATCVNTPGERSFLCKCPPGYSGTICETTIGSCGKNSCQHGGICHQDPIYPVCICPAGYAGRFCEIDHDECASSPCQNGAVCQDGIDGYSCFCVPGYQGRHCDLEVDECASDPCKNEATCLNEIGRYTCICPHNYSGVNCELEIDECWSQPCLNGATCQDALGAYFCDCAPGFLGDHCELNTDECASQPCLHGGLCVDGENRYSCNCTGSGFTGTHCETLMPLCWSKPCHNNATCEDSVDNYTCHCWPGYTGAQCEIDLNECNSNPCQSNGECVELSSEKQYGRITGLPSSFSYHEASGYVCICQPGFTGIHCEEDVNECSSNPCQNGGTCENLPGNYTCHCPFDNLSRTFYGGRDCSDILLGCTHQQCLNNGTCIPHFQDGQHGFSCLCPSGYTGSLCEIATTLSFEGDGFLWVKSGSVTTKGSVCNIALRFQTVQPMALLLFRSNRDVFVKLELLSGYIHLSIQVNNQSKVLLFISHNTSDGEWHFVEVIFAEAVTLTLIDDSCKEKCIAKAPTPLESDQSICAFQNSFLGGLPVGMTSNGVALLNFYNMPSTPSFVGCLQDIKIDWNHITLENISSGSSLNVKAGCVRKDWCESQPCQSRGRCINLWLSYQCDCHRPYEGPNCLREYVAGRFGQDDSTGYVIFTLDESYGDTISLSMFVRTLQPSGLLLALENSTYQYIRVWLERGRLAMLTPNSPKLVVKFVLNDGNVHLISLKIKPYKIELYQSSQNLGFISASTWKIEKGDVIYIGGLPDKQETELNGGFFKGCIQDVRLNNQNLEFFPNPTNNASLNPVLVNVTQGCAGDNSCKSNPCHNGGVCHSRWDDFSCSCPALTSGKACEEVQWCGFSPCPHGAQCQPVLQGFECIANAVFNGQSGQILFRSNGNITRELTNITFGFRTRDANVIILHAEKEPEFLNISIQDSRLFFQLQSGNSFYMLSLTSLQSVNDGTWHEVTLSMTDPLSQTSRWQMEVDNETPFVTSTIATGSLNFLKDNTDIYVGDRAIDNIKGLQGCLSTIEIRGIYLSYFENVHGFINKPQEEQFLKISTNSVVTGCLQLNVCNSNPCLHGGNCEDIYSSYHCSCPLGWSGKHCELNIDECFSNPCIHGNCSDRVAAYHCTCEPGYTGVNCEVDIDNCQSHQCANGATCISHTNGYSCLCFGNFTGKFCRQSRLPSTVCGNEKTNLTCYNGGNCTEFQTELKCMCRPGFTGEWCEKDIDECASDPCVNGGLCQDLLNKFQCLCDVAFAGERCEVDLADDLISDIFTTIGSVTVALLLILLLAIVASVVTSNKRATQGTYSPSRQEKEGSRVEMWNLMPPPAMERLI
Test: co-IP; HEK293T cells co-transfected pairwise with a FLAG and an HA construct, 48 h; lysis in TBS (30 mM Tris-HCl pH 7.4, 150 mM NaCl) with 0.5% Nonidet P40; FLAG-IP on ANTI-FLAG M2 Affinity Gel 60-90 min at 4°C, elution with FLAG peptide; Western blot with HA and FLAG antibodies; for mutants HA/FLAG signal in eluates relative to WT, three biological replicates
Conditions: partners not purified

percent reduction of the interaction relative to CRB1 WT: ~30%
B1: Human canonical CRB2 (Crumbs homolog 2) (natural protein)
chain: not shown
notes: Crumbs homolog 2, human, cDNA NM_173689; Stood as bait (FLAG copy) and as prey (HA copy) in the pairwise co-IP matrix; each copy carries only one of the two tags; The FLAG copy was the bait of the mass spectrometry pull-downs; also called CRB2-FLAG; CRB2-HA; source: HEK293T, transfected, in lysate (co-IP); HEK293T, transfected, FLAG-IP on beads, washed and purified with 0.01% SDS (retina …)

— paper PMC10992996, “Human CRB1 and CRB2 form homo- and heteromeric protein complexes in the retina” (Life Science Alliance, 2024)
